Consider eight molecules from paper PMC12817480, “Phospho‐Proteomics Identifies D‐Group MAP Kinases as Substrates of the Arabidopsis Tyrosine Phosphatase RLPH2” (Plant Direct, 2026).

Holding throughout (settings): both partners purified
Test [1] concerns the target T1, Purified MPK9‐V5‐His6 with the RVSF motif maintained (MPK9^RVSF), as used with PP1 (Arabidopsis thaliana, UniProt Q9LV37 1-510).
T1 construct: MAP kinase 9 (MPK9), Arabidopsis thaliana, At3g18040, synthesized gene codon optimized for bacteria, in pDEST42; Same construct as m2; also called MPK9^RVXF; MPK9^RVxF; source: E. coli BL21 (DE3) CodonPlus‐RIL, purified (Ni‐NTA)
T1 sequence (looked up): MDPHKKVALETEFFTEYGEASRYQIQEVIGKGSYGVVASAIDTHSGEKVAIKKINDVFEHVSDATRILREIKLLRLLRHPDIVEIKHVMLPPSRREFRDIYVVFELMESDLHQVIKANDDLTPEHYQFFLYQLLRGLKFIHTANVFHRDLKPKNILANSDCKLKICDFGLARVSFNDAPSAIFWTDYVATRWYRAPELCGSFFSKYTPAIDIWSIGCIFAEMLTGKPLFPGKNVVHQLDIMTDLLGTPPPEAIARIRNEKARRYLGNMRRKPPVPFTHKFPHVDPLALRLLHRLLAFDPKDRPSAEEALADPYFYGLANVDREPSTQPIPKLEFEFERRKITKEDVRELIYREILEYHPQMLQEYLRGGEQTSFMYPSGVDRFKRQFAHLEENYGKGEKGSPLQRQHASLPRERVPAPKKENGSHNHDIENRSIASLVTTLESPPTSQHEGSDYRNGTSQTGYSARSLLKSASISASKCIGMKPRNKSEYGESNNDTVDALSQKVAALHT
In words: pull-down; TOPP5 (1 μg) and MPK9^RVXF or MPK9^RASA (5 μg) incubated 1 h at RT, then with BSA‐blocked Ni‐NTA 1 h at RT; washed with 50 mM HEPES pH 7.5, 300 mM NaCl, 0.1% Tween 20; western blot (V5, pan‐TOPP). (In western blotting, separated proteins are transferred to a membrane and probed.)

Test [2] concerns the target T1, Purified MPK9‐V5‐His6 with the RVSF …. In words: far-Western, overlay or dot blot; MPK9^RVXF and MPK9^RASA run on SDS‐PAGE, blotted to nitrocellulose, probed with PP1 (TOPP) isoforms (2 μg/mL) for 4 h in TBS plus 5% milk powder; PP1 detected with anti‐TOPP antibody.
Test [3] addresses T2, MPK9‐V5‐His6, full‐length, activated/phosphorylated (MPK9^TDY) (Arabidopsis thaliana, UniProt Q9LV37 1-510, phospho-threonine and phospho-tyrosine of the activation loop TDY motif (autophosphorylated; dual phosphorylated pTxpY)).
T2 construct: MAP kinase 9 (MPK9), Arabidopsis thaliana, At3g18040, synthesized gene codon optimized for bacteria, in pDEST42; Printed as MPK9-V5-His6 (tags written after the name); also called MAP kinase 9; ATMPK9; source: E. coli BL21 (DE3) CodonPlus‐RIL, purified (Ni‐NTA), then autophosphorylated with Mg‐ATP
T2 sequence (looked up): T1 sequence (looked up)
In words: far-Western, overlay or dot blot; purified activated MPKs dotted onto nitrocellulose, blocked, overlaid with purified RLPH2 (1.5 μg/mL), detected with anti‐RLPH2 antibody; in triplicate.

B1: Arabidopsis PP1 isoform 5 (TOPP5) (enzyme, Arabidopsis thaliana, UniProt P48485 1-312, looked up)
chain: MAQQGQGSMDPAVLDDIIRRLLDYRNPKAGTKQAMLNDSEIRQLCFVSREIFLQQPCLLELAAPVKICGDIHGQYSDLLRLFEYGGFPPAANYLFLGDYVDRGKQSLETICLLLAYKIKYPENFFLLRGNHECASINRIYGFYDECKRRFNVKLWKVFTDTFNCLPVAAVIDEKILCMHGGLSPELINVEQIKNIERPTDVPDAGLLCDLLWSDPSKDVKGWGMNDRGVSYTFGADKVAEFLIKNDMDLVCRAHQVVEDGYEFFADRQLVTMFSAPNYCGEFDNAGALMSVDESLMCSFQILKPVDRRSRFF
notes: Type one protein phosphatase 5 (TOPP5), PP1 catalytic subunit, Arabidopsis thaliana; also called AtPP1; source: recombinant, purified on microcystin‐Sepharose (as in Templeton et al. 2011)
Take B1: in test [1], the binding result is listed as “binds”.

B2: Arabidopsis PP1 isoform 2 (TOPP2) (enzyme, Arabidopsis thaliana, UniProt P48482 1-312, looked up)
chain: MAQQGQGSMDPAALDDIIRRLLDYRNPKPGTKQAMLNESEIRQLCIVSREIFLQQPNLLELEAPIKICGDIHGQYSDLLRLFEYGGFPPTANYLFLGDYVDRGKQSLETICLLLAYKIKYPENFFLLRGNHECASINRIYGFYDECKRRFSVRLWKVFTDSFNCLPVAAVIDDKILCMHGGLSPDLTNVEQIKNIKRPTDVPDSGLLCDLLWSDPSKDVKGWGMNDRGVSYTFGPDKVAEFLIKNDMDLICRAHQVVEDGYEFFADRQLVTIFSAPNYCGEFDNAGAMMSVDESLMCSFQILKPADRKPRFL
notes: Type one protein phosphatase 2 (TOPP2), PP1 catalytic subunit, Arabidopsis thaliana; source: recombinant, purified on microcystin‐Sepharose (as in Templeton et al. 2011)
Regarding B2, in test [2], the binding result is “binds”.

B3: Arabidopsis PP1 isoform 9 (TOPP9) (enzyme, Arabidopsis thaliana, UniProt Q9M9W3 1-318, looked up)
chain: MMTSMEGMMEMGVLDDIIRRLLEGKGGKQVQLSEVEIRQLCVNARQIFLSQPNLLELHAPIRICGDIHGQYQDLLRLFEYGGYPPSANYLFLGDYVDRGKQSLETICLLLAYKIRYPSKIFLLRGNHEDAKINRIYGFYDECKRRFNVRLWKIFTDCFNCLPVAALIDEKILCMHGGLSPELENLGQIREIQRPTEIPDNGLLCDLLWSDPDQKNEGWTDSDRGISCTFGADVVADFLDKNDLDLICRGHQVVEDGYEFFAKRRLVTIFSAPNYGGEFDNAGALLSVDQSLVCSFEILKPAPASSTNPLKKVPKMGKS
notes: Type one protein phosphatase 9 (TOPP9), PP1 catalytic subunit, Arabidopsis thaliana; source: recombinant, purified on microcystin‐Sepharose (as in Templeton et al. 2011)
As for B3, the binding result in test [2] is recorded as “binds”.

B4: Arabidopsis PP1 isoform 8 (TOPP8) (enzyme, Arabidopsis thaliana, UniProt O82734 1-324, looked up)
chain: MMTSMEGMVEKGVLDDIIRRLLEGKGGKQVQLSESEIRQLCFNARQIFLSQPNLLDLHAPIRICGDIHGQYQDLLRLFEYGGYPPSANYLFLGDYVDRGKQSLETICLLLAYKIRYPSKIYLLRGNHEDAKINRIYGFYDECKRRFNVRLWKVFTDCFNCLPVAALIDEKILCMHGGLSPDLDNLNQIREIQRPIEIPDSGLLCDLLWSDPDQKIEGWADSDRGISCTFGADKVAEFLDKNDLDLICRGHQVVEDGYEFFAKRRLVTIFSAPNYGGEFDNAGALLSVDESLVCSFEIMKPAPASSSHPLKKDFHNRTLGYNLSA
notes: Type one protein phosphatase 8 (TOPP8), PP1 catalytic subunit, Arabidopsis thaliana; source: recombinant, purified on microcystin‐Sepharose (as in Templeton et al. 2011)
Take B4: the binding result in test [2] was “binds”.

B5: Arabidopsis PP1 isoform 3 (TOPP3) (enzyme, Arabidopsis thaliana, UniProt P48483 1-322, looked up)
chain: MEDSVVDDVIKRLLGAKNGKTTKQVQLTEAEIKHLCSTAKQIFLTQPNLLELEAPIKICGDTHGQFSDLLRLFEYGGYPPAANYLFLGDYVDRGKQSVETICLLLAYKIKYKENFFLLRGNHECASINRIYGFYDECKKRYSVRVWKIFTDCFNCLPVAALIDEKILCMHGGLSPELKHLDEIRNIPRPADIPDHGLLCDLLWSDPDKDIEGWGENDRGVSYTFGADKVEEFLQTHDLDLICRAHQVVEDGYEFFANRQLVTIFSAPNYCGEFDNAGAMMSVDDSLTCSFQILKASEKKGNFGFGKNAGRRGTPPRKGGGKG
notes: Type one protein phosphatase 3 (TOPP3), PP1 catalytic subunit, Arabidopsis thaliana; source: recombinant, purified on microcystin‐Sepharose (as in Templeton et al. 2011)
Regarding B5, the binding result in test [2] was “binds”.

B6: Arabidopsis thaliana Rhizobiales‐like phosphatase 2 (RLPH2‐V5‐His6) (enzyme, UniProt Q9SR62 1-309, looked up)
chain: MAQKPRTVICVGDIHGYISKLNNLWLNLQSAIDPSDFSSALVIFLGDYCDRGPETRKVIDFLISLPEKHPDQTHVFLAGNHDFAFSGFLGLLPRPSDGSDLKDTWKEYSKSEETEGWYTGEGFEDMHLQGRRWAGKIKATFNSVKGMAYKGSIYDAGSTFESYGVPHGSSDLMKAVPESHKKFLTNMVWVHEEDDVCIETEEGLKHCKLIAVHAGLEKGNNVEEQLKLLRAKDTSISKIQHLSGRKNVWDIPQELDDKHTVVVSGHHGKLHIDGMRLIIDEGGGFPDKPVAAIVLPSKKIIRDTDNLSS
notes: Rhizobiales-like phosphatase 2 (RLPH2), Arabidopsis thaliana; Printed as RLPH2-V5-His6 (tags written after the name); source: bacterially expressed, purified (as in Uhrig et al. 2016)
Turning to B6, in test [3], the binding result was “binds”.

B7: Arabidopsis PP1 isoform 1 (TOPP1) (enzyme, Arabidopsis thaliana, UniProt P30366 1-318, looked up)
chain: MAEKPAQEQEQKRAMEPAVLDDIIRRLVEFRNTRPGSGKQVHLSEGEIRQLCAVSKEIFLQQPNLLELEAPIKICGDIHGQYSDLLRLFEYGGFPPEANYLFLGDYVDRGKQSLETICLLLAYKIKYPENFFLLRGNHESASINRIYGFYDECKRRFNVRLWKIFTDCFNCLPVAALIDDRILCMHGGISPELKSLDQIRNIARPMDIPESGLVCDLLWSDPSGDVGWGMNDRGVSYTFGADKVAEFLEKHDMDLICRAHQVVEDGYEFFAERQLVTVFSAPNYCGEFDNAGAMMSIDESLMCSFQILKPSEKKSPFL
notes: Type one protein phosphatase 1 (TOPP1), PP1 catalytic subunit, Arabidopsis thaliana; source: recombinant, purified on microcystin‐Sepharose (as in Templeton et al. 2011)
With B7, in test [2], the binding result is “binds”.

B8: Arabidopsis PP1 isoform 4 (TOPP4) (enzyme, Arabidopsis thaliana, UniProt P48484 1-321, looked up)
chain: MATTTTTQGQQTAIDSAVLDDIIRRLTEVRLARPGKQVQLSEAEIKQLCTTARDIFLQQPNLLELEAPIKICGDIHGQYSDLLRLFEYGGFPPSANYLFLGDYVDRGKQSLETICLLLAYKIKYPGNFFLLRGNHECASINRIYGFYDECKRRFNVRVWKVFTDCFNCLPVAALIDDKILCMHGGLSPDLDHLDEIRNLPRPTMIPDTGLLCDLLWSDPGKDVKGWGMNDRGVSYTFGPDKVSEFLTKHDLDLVCRAHQVVEDGYEFFADRQLVTVFSAPNYCGEFDNAGAMMSVDENLMCSFQILKPAEKKTKFMMSTKI
notes: Type one protein phosphatase 4 (TOPP4), PP1 catalytic subunit, Arabidopsis thaliana; source: recombinant, purified on microcystin‐Sepharose (as in Templeton et al. 2011)
Regarding B8, the binding result in test [2] is given as “binds”.
